Substitutions are numbered along the chain they refer to.
T1: mouse Tie1 Fc (Mus musculus, UniProt Q06806)
T1 construct: both dimeric (Tie1-Fc fusion protein) and monomeric (Tie1-HIS) versions of the extracellular domain of the Tie1 were used
T1 sequence (Q06806 23-755 limits assumed): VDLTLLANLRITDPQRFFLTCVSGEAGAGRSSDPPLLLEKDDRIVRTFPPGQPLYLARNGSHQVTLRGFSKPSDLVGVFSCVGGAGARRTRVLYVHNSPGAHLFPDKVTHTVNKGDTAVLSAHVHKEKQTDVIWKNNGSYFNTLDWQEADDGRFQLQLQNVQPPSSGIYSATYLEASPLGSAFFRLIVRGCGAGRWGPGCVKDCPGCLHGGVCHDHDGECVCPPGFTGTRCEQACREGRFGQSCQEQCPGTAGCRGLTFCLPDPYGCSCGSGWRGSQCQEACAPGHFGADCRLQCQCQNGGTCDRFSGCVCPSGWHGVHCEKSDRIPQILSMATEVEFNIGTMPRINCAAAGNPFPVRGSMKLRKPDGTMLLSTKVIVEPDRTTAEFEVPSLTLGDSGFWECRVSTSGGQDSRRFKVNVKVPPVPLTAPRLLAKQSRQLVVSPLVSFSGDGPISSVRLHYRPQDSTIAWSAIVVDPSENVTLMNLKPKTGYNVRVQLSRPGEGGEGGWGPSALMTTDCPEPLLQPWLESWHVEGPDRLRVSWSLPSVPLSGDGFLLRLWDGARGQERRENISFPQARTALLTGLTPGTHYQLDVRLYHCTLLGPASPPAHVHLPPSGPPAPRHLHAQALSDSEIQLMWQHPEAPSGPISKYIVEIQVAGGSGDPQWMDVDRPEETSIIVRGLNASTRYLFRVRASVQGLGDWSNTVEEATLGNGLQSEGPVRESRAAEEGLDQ

B1: E3: human anti-Tie1 antibody from phage Fab library, reformatted as IgG; HC variable SEQ ID NO:114, LC variable SEQ ID NO:116 (antibody, V domains shown)
VH: EVQLLESGGGLVQPGGSLRLSCAASGFTFSMYGMVWVRQAPGKGLEWVSVISPSGGNTGYADSVKGRFTISRDNSKNTLYLQVNSLRAEDTAVYYCARAPRGYSYGYYYWGQGTLVTVSSASTKGPSVFPLAPSSKSTSGG
VL: DIQMTQSPLSLSASVGDRVTITCRASQGIGHYLAWYQQKPGKVPKLLIYTASTLQSGVPSRFSGSGSGTDFTLTINSLQPEDVATYYCQQFNSYPHTFGQGTRLDIK
modifications: IgG constant regions; Synthetically generated peptide
B2: germlined E3 Fab: soluble Fab of E3 with LC framework regions germlined to DPK4; LC variable SEQ ID NO:159 (antibody, V domains shown)
VH: B1 VH
VL: B1 VL with L9S, N76S, D105E
B3: parental E3 Fab: soluble Fab fragment of the parental E3 anti-Tie1 antibody (antibody, V domains shown)
VH: B1 VH
VL: B1 VL
B4: DX-2210: E3 antibody in which the light chain has been germlined (antibody, V domains shown)
VH: B1 VH
VL: B1 VL with L9S, N76S, D105E

What was measured:
[1] = biological target: T1, mouse Tie1 Fc; assay: BIAcore, mouse Tie1 Fc over IgG coated on CM5 chip; assay type: binding; details: IgG immobilised; Mouse Tie1 Fc analyte
Protocol: In order to evaluate if the binding behavior had been affected in any way by the conversion of the somatic mutations back to germline, the germlined antibody was produced and tested as an IgG. The germlined E3 was reformatted to an IgG as described. This was then used to transiently transfect HEK293T cells using established procedures. The IgG was purified from the culture supernatant using protein A column chromatography using established procedures and the subsequent IgG was then tested for binding activity using surface plasmon resonance (BIAcore). The germlined E3 IgG1 stock solution 0.63 mg/ml (2146-002) was diluted 1/50 in a buffer of pH 4.5 and the parental E3 IgG1 stock solution 0.56 mg/ml (2143-001) was diluted 1/50 in a buffer of pH 4.5. The IgG were directly coated via onto a CM5 chip. The surface of the chips was activated with a 7 minute pulse of 0.05M NHS/0.2M EDC and the IgG was flowed over until 780RU germlined E3-IgG and 728 non germlined E3 IgG was coated onto the surface. All flow cells were subsequently deactivated with a 7 minute pulse of 1M ethanolamine hydrochloride pH8,5. All analysis was performed in HBS buffer. Purified recombinant mouse Tie1 Fc was diluted 1/6,5 in HBS to obtain a 400 nM stock solution. Serial dilutions were made to obtain 200 nM, 100 nM, 50 nM and 25 nM Tie1 Fc stocks. For analysis of the association phase samples were injected at 30 μl/min for 8.3 minutes using kinject program. This was followed by a 40 minutes dissociation phase. Any antigen remaining associated to the surface was stripped from the IgG surface at a flow of 50 μl/min with two injections of 10 mM glycine pH1.5 for 30 seconds. All samples were run and analyzed in duplicate
(§1) Sensorgrams were analyzed using the simultaneous ka/kd fitting program with 1:1 model in the BIAEVALUATION™ software 3.1.

[2] = biological target: T1, mouse Tie1 Fc; assay: BIAcore, Fab over biotinylated mouse Tie1-Fc on streptavidin chip; assay type: binding; details: Fab analyte; for kon: 740 RU
Protocol: Mouse Tie 1-Fc antigen (0.5 mg/ml stock) was biotinylated using established procedures and after dilution 1/100 fold in HBS this was then used for capturing to a streptavidin chip. This was coated to a resonance value of 740RU. All analysis was performed in HBS buffer. The parental Fab E3 0.587 mg/ml (11740 nM) was diluted 1/587 in HBS+BSA to obtain a stock of 20 nM and the germlined Fab E3 0.025 mg/ml (500 nM) was diluted 1/25 in HBS+BSA to obtain a stock of 20 nM. Serial dilutions were made of each Fab preparation to obtain 10 nM, 5 nM, 2.5 nM, and 1.25 nM. For the association phase samples were injected at 30 μl/min for 4 minutes using kinject program. This was followed by a 10 minutes dissociation phase, any remaining sample was stripped from the Tie1 Fc surface at a flow of 50 μl/min with a single injection of 50 mM NaOH+1 M NaCl for 18 seconds. All samples were run and analyzed in duplicate.
as §1

Molecule | koff [1] [s⁻¹] | kon [1] [M⁻¹ s⁻¹] | koff [2] [s⁻¹] | kon [2] [M⁻¹ s⁻¹]
B1 | 9.2e-05 | 6170 | – | –
B2 | – | – | 0.00104 | 340000
B3 | – | – | 0.00095 | 246000
B4 | 8.99e-05 | 6000 | – | –

From patent US20100196361A1, “Method of inhibition of vascular development using an antibody” (DYAX CORP., priority 2003, published 2010)
